Reference: US20110118172A1 (Takeda / Millennium, published 2011)
Non-standard residues stand in square brackets, D forms with d. No end group written: not given here. *: point of attachment. benzylureido = benzylcarbamoyl on the N-terminal amino group, O=C(NCc1ccccc1)*; amidino = amidino group on the N-terminal amino group, N=C(N)*; Pro(trans-4-F) = O=C(O)[C@@H]1C[C@@H](F)CN1; Arg(Me) = CNC(=N)NCCC[C@H](N)C(=O)O; Dap(CONH2) = NC(=O)NC[C@H](N)C(=O)O; Hyp = O=C(O)[C@@H]1C[C@@H](O)CN1; Cha = N[C@@H](CC1CCCCC1)C(=O)O; dCha = N[C@H](CC1CCCCC1)C(=O)O; Decanoyl = CCCCCCCCCC(=O)*; Carbamoyl = NC(=O)*; azaGly = NNC(=O)O; Ms = CS(=O)(=O)*

Target: metastin receptor (OT7T175) stably expressed on CHO cells
Assay: cell-based or functional assay

Binder	Specific Activity: EC50 of the test compound based on EC50 of Metastin (45-54); agonist activity by change in intracellular calcium ion level (Fluo-4 NW, FLIPR) in receptor-expressing CHO cells
amidino-[dY][Hyp]NTF[azaGly]L[Arg(Me)]W-NH2 (SMILES CNC(=N)NCCC[C@H](NC(=O)[C@H](CC(C)C)NC(=O)NNC(=O)[C@H](Cc1ccccc1)NC(=O)[C@@H](NC(=O)[C@H](CC(N)=O)NC(=O)[C@@H]1C[C@@H](O)CN1C(=O)[C@@H](Cc1ccc(O)cc1)NC(=N)N)[C@@H](C)O)C(=O)N[C@@H](Cc1c[nH]c2ccccc12)C(N)=O) [Compound No. 971: des(1)-Amidino-[D-Tyr2,Hyp3,Thr5,AzaGly7,Arg(Me)9,Trp10]MS10]	0.4 ratio
Ac-[dY][Hyp][Dap(CONH2)]T[dCha]GL[Arg(Me)]W-NH2 (also: Gly7-Leu8 -CONH- replaced by (E)-CH=CH-) [Compound No. 975: des(1)-Ac-[D-Tyr2,Hyp3,Alb4,Thr5,D-Cha6,Gly7ψ((E)CH=CH)Leu8,Arg(Me)9,Trp10]MS10]	2.3 ratio
Decanoyl-[dY][Hyp]NTF[azaGly]L[Arg(Me)]W-NH2 (SMILES CCCCCCCCCC(=O)N[C@H](Cc1ccc(O)cc1)C(=O)N1C[C@H](O)C[C@H]1C(=O)N[C@@H](CC(N)=O)C(=O)N[C@H](C(=O)N[C@@H](Cc1ccccc1)C(=O)NNC(=O)N[C@@H](CC(C)C)C(=O)N[C@@H](CCCNC(=N)NC)C(=O)N[C@@H](Cc1c[nH]c2ccccc12)C(N)=O)[C@@H](C)O) [Compound No. 965: des(1)-decanoyl[D-Tyr2,Hyp3,Thr5,AzaGly7,Arg(Me)9,Trp10]MS10]	4.1 ratio
Ac-[dY][Hyp][Dap(CONH2)]T[Cha]GL[Arg(Me)]W-NH2 (also: Gly7-Leu8 -CONH- replaced by (E)-CMe=CH-) [Compound No. 986: des(1)-Ac-[D-Tyr2,Hyp3,Alb4,Thr5,Cha6,Gly7ψ((E)CMe=CH)Leu8,Arg(Me)9,Trp10]MS10]	0.3 ratio
Ac-[dY][Hyp][Dap(CONH2)]T[Cha]G[dL][Arg(Me)]W-NH2 (also: Gly7-D-Leu8 -CONH- replaced by (E)-CH=CH-) [Compound No. 976: des(1)-Ac-[D-Tyr2,Hyp3,Alb4,Thr5,Cha6,Gly7ψ((E)CH=CH)D-Leu8,Arg(Me)9,Trp10]MS10]	1 ratio
Carbamoyl-[dY][Hyp]NTF[azaGly]L[Arg(Me)]W-NH2 (SMILES CNC(=N)NCCC[C@H](NC(=O)[C@H](CC(C)C)NC(=O)NNC(=O)[C@H](Cc1ccccc1)NC(=O)[C@@H](NC(=O)[C@H](CC(N)=O)NC(=O)[C@@H]1C[C@@H](O)CN1C(=O)[C@@H](Cc1ccc(O)cc1)NC(N)=O)[C@@H](C)O)C(=O)N[C@@H](Cc1c[nH]c2ccccc12)C(N)=O) [Compound No. 967: des(1)-Ureido-[D-Tyr2,Hyp3,Thr5,AzaGly7,Arg(Me)9,Trp10]MS10]	0.6 ratio
Ms-[dY][Hyp]NTF[azaGly]L[Arg(Me)]W-NH2 (SMILES CNC(=N)NCCC[C@H](NC(=O)[C@H](CC(C)C)NC(=O)NNC(=O)[C@H](Cc1ccccc1)NC(=O)[C@@H](NC(=O)[C@H](CC(N)=O)NC(=O)[C@@H]1C[C@@H](O)CN1C(=O)[C@@H](Cc1ccc(O)cc1)NS(C)(=O)=O)[C@@H](C)O)C(=O)N[C@@H](Cc1c[nH]c2ccccc12)C(N)=O) [Compound No. 963: des(1)-Ms-[D-Tyr2,Hyp3,Thr5,AzaGly7,Arg(Me)9,Trp10]MS10]	0.9 ratio
benzylureido-[dY][Hyp]NTF[azaGly]L[Arg(Me)]W-NH2 (SMILES CNC(=N)NCCC[C@H](NC(=O)[C@H](CC(C)C)NC(=O)NNC(=O)[C@H](Cc1ccccc1)NC(=O)[C@@H](NC(=O)[C@H](CC(N)=O)NC(=O)[C@@H]1C[C@@H](O)CN1C(=O)[C@@H](Cc1ccc(O)cc1)NC(=O)NCc1ccccc1)[C@@H](C)O)C(=O)N[C@@H](Cc1c[nH]c2ccccc12)C(N)=O) [Compound No. 966: des(1)-Benzylureido-[D-Tyr2,Hyp3,Thr5,AzaGly7,Arg(Me)9,Trp10]MS10]	1.9 ratio

Results, then the binder that gave them:

Specific Activity: EC50 of the test compound based on EC50 of Metastin (45-54); agonist activity by change in intracellular calcium ion level (Fluo-4 NW, FLIPR) in receptor-expressing CHO cells	Binder
0.6 ratio	Ac-[dY][Pro(trans-4-F)]NT[Cha][azaGly]L[Arg(Me)]W-NH2 [Compound No. 970: des(1)-Ac-[D-Tyr2,Pro(4F)3,Thr5,Cha6,AzaGly7,Arg(Me)9,Trp10]MS10]
1.7 ratio	[Hyp]NTF[azaGly]L[Arg(Me)]W-NH2 (N-terminus assumed; SMILES CNC(=N)NCCC[C@H](NC(=O)[C@H](CC(C)C)NC(=O)NNC(=O)[C@H](Cc1ccccc1)NC(=O)[C@@H](NC(=O)[C@H](CC(N)=O)NC(=O)[C@@H]1C[C@@H](O)CN1)[C@@H](C)O)C(=O)N[C@@H](Cc1c[nH]c2ccccc12)C(N)=O) [Compound No. 977: des(1-2)-[Hyp3,Thr5,AzaGly7,Arg(Me)9,Trp10]MS10]
0.3 ratio	Ac-[dY][Hyp]NT[Cha][azaGly]L[Arg(Me)]W-NH2 [Compound No. 969: des(1)-Ac-[D-Tyr2,Hyp3,Thr5,Cha6,AzaGly7,Arg(Me)9,Trp10]MS10]
